Experimental data from patent publication US20090130697A1 (COLORADO STATE UNIVERSITY RESEARCH FOUNDATION, published 2009).

Target: FLS:Trg:EnvZ:AHK4 hybrid transmembrane histidine kinase (FLS2 plant leader, Trg extracellular domain, EnvZ, …)
Assay: cell-based or functional assay

B1: SS-TNT, computationally designed TNT receptor (sensor protein): PEX secretory sequence fused to the periplasmic ribose binding protein engineered to bind TNT (designed binder)
chain: MERPFGCFFILLLISYTVVAKDTIALVVSTLNSPFLVSLKDGAQKEADKLGYNLVVLDSQNNPAKELANVQDLTVRGTKILLINPTDSDAVGNAVKMANQANIPVITLSSQATKGEVVSHIASDNVLGGKIAGDYIAKKAGEGAKVIELQGIAGTSSARESGEGFQQAVAAHKFNVLASQPADIDRIKGLNVMQNLLTAHPDVQAVFAQFDEMALGALRALQTAGKSDVMVVGFSGTPDGEKAVNDGKLAATIASLPDQIGAKGVETADKVLKGEKVQAKYPVDLKLVVKQDYKDDDDK
GUS expression from the ARR5 promoter in transgenic Arabidopsis in response to TNT: ~2 fold
